Data taken from publication PMC8906176.

Molecular target: C4-AM2 monobody
Experiment: BLI

Substance | Kd
SARS-CoV-2 S protein receptor-binding domain, Alpha variant (B.1.1.7) (from UniProt P0DTC2) (domain or fragment) | < 0.01 nM
SARS-CoV-2 S protein receptor-binding domain, Beta variant (B.1.351) (from UniProt P0DTC2) (domain or fragment) | 6.3 nM
